From patent EP4786492A1
Numbering of substitutions follows the chain as printed. One block for each binder: values may come before it.

Columns and labels:
[1] = target: DLL3 endogenously expressed on NCI-H82 cells (UniProt Q9NYJ7); assay: FACS on NCI-H82 cells; antibody 4 nM
[2] = target: DLL3 endogenously expressed on NCI-H82 cells (UniProt Q9NYJ7); assay: FACS on NCI-H82 cells; antibody 20 nM
[3] = target: mouse DLL3 on CHO-K1-mDLL3 cells (mouse) (UniProt O88516); assay: FACS, CHO-K1-mDLL3 cells, 20 nM antibody
Sequence of mouse DLL3 on CHO-K1-mDLL3 cells (mouse) (O88516 other isoform, or with tags, fused parts or gaps limits assumed): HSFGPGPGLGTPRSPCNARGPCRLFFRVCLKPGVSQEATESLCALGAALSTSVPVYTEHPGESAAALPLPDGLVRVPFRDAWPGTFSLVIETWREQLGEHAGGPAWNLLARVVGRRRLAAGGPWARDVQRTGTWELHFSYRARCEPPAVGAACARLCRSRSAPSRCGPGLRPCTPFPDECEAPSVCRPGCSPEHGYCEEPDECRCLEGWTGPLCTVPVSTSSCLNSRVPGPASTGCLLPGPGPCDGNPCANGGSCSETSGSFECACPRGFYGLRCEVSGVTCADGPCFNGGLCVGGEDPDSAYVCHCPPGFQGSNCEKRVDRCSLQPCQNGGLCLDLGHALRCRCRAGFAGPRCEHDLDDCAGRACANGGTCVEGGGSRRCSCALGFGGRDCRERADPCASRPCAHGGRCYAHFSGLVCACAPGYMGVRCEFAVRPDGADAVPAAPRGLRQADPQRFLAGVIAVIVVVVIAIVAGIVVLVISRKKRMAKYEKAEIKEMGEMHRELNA

[4] = target: mouse DLL3 on CHO-K1-mDLL3 cells (mouse) (UniProt O88516); assay: FACS, CHO-K1-mDLL3 cells, 0.032 nM antibody
[5] = target: monkey DLL3 on CHO-K1-cyno DLL3 cells (cynomolgus monkey); assay: FACS, CHO-K1-cyno DLL3 cells, 0.0064 nM antibody
Sequence of monkey DLL3 on CHO-K1-cyno DLL3 cells (cynomolgus monkey) (chain, as listed by the source limits assumed): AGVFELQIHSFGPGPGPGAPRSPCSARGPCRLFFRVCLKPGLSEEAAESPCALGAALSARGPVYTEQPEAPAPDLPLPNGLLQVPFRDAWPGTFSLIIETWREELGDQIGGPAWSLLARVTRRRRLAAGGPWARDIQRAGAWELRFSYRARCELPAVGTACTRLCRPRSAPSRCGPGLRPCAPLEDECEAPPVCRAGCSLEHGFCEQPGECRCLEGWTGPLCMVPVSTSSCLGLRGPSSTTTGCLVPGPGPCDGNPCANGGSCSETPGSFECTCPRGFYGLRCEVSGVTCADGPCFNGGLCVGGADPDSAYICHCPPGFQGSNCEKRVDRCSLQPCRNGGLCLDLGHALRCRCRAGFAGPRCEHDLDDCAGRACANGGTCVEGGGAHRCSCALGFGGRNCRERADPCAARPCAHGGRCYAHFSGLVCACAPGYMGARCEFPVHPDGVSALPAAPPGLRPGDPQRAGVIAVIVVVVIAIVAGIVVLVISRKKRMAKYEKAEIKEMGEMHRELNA

[6] = target: monkey DLL3 on CHO-K1-cyno DLL3 cells (cynomolgus monkey); assay: FACS, CHO-K1-cyno DLL3 cells, 0.8 nM antibody
[7] = target: human DLL4 protein (Acro, Cat. No. DL4-H5227) (human) (UniProt Q9NR61); assay: ELISA, coated hDLL4; maximum over 0.1, 1, 10, 100 nM antibody
Sequence of human DLL4 protein (Acro, Cat. No. DL4-H5227) (human) (Q9NR61 27-524 limits assumed): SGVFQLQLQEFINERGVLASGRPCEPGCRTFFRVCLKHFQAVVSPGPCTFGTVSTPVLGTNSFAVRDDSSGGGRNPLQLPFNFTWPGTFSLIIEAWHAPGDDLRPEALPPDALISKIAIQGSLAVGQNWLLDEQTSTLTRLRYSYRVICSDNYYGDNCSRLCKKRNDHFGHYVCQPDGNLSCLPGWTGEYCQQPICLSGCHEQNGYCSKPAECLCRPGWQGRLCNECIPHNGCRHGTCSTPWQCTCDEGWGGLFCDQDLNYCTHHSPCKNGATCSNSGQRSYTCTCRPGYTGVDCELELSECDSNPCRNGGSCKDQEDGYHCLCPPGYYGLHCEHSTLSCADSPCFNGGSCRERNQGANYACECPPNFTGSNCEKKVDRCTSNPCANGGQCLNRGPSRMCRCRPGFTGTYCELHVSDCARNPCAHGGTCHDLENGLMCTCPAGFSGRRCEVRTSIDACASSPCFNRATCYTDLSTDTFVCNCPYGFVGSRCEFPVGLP

[8] = target: human DLL3 protein expressed on CHO-K1 recombinant cells (human DLL3 extracellular segment fused to EpCAM transmembrane and intracellular regions) (human) (UniProt Q9NYJ7); assay: FACS, CHO-K1 hDLL3 cells, 0.0064 nM antibody
Sequence of human DLL3 protein expressed on CHO-K1 recombinant cells (human DLL3 extracellular segment fused to EpCAM transmembrane and intracellular regions) (human) (Q9NYJ7 other isoform, or with tags, fused parts or gaps limits assumed): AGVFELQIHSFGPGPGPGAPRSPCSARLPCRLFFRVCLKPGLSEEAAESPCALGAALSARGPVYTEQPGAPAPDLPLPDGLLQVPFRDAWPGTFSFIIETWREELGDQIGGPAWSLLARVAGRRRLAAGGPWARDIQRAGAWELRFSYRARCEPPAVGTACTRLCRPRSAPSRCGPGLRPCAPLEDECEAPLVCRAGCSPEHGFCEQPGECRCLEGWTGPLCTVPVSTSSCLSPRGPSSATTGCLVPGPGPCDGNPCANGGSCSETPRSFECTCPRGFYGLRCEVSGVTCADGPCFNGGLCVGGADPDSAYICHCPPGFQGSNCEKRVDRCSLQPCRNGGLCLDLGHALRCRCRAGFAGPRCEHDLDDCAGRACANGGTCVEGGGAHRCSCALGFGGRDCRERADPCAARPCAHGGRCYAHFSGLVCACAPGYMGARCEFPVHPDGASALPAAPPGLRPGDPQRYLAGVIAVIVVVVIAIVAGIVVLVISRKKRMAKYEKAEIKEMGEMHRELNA

[9] = target: mouse DLL3 on CHO-K1-mDLL3 cells (mouse) (UniProt O88516); assay: FACS, CHO-K1-mDLL3 cells, 0.16 nM antibody
[10] = target: monkey DLL3 on CHO-K1-cyno DLL3 cells (cynomolgus monkey); assay: FACS, CHO-K1-cyno DLL3 cells, 20 nM antibody
[11] = target: human DLL3 protein expressed on CHO-K1 recombinant cells (human DLL3 extracellular segment fused to EpCAM transmembrane and intracellular regions) (human) (UniProt Q9NYJ7); assay: FACS, CHO-K1 hDLL3 cells, 0.032 nM antibody
[12] = target: DLL3 endogenously expressed on NCI-H82 cells (UniProt Q9NYJ7); assay: FACS on NCI-H82 cells; antibody 0.8 nM
[13] = target: mouse DLL3 on CHO-K1-mDLL3 cells (mouse) (UniProt O88516); assay: FACS, CHO-K1-mDLL3 cells, 100 nM antibody
[14] = target: human DLL3 protein expressed on CHO-K1 recombinant cells (human DLL3 extracellular segment fused to EpCAM transmembrane and intracellular regions) (human) (UniProt Q9NYJ7); assay: FACS, CHO-K1 hDLL3 cells, 4 nM antibody
[15] = target: DLL3 endogenously expressed on NCI-H82 cells (UniProt Q9NYJ7); assay: FACS on NCI-H82 cells; antibody 0.0064 nM
[16] = target: human delta-like ligand 3 (DLL3) on SHP77 cells (human) (UniProt Q9NYJ7); assay: FACS on SHP77 cells
Sequence of human delta-like ligand 3 (DLL3) on SHP77 cells (human) (Q9NYJ7 27-618, stated change not applied): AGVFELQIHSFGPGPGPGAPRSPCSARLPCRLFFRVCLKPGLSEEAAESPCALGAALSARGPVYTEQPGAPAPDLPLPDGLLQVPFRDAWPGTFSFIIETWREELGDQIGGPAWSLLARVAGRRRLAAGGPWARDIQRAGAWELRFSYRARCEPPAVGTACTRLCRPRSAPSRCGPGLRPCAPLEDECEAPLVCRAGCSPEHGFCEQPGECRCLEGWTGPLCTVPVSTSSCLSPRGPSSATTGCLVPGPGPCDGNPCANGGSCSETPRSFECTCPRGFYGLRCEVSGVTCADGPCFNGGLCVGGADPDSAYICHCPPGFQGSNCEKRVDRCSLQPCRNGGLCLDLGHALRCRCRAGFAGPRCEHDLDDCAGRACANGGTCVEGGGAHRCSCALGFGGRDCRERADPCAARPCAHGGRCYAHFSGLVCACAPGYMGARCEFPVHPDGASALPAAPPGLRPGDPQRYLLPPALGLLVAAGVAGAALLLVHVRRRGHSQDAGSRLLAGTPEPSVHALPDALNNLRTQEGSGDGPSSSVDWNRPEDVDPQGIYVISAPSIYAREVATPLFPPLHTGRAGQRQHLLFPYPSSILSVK

[17] = target: DLL3 endogenously expressed on NCI-H82 cells (UniProt Q9NYJ7); assay: FACS on NCI-H82 cells; antibody 100 nM
[18] = target: monkey DLL3 on CHO-K1-cyno DLL3 cells (cynomolgus monkey); assay: FACS, CHO-K1-cyno DLL3 cells, 100 nM antibody
[19] = target: monkey DLL3 on CHO-K1-cyno DLL3 cells (cynomolgus monkey); assay: FACS, CHO-K1-cyno DLL3 cells, 0.16 nM antibody
[20] = target: human DLL1 protein (Acro, Cat. No. DL1-H52H8) (human) (UniProt O00548); assay: ELISA, coated hDLL1; maximum over 0.1, 1, 10, 100 nM antibody
Sequence of human DLL1 protein (Acro, Cat. No. DL1-H52H8) (human) (O00548 18-540 limits assumed): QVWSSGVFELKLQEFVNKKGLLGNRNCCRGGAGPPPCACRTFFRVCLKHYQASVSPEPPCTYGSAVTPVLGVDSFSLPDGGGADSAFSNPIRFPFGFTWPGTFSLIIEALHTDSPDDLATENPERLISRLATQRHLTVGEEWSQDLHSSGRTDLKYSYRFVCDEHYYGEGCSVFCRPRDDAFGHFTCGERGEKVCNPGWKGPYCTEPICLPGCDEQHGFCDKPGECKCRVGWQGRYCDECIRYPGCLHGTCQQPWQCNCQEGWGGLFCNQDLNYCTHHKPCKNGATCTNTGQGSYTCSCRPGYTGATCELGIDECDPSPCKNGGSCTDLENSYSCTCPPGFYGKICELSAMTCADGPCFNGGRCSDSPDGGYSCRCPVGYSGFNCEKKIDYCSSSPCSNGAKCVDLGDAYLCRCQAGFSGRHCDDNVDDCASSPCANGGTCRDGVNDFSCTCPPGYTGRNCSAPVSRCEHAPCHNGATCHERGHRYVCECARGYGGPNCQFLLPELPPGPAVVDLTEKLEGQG

[21] = target: mouse DLL3 on CHO-K1-mDLL3 cells (mouse) (UniProt O88516); assay: FACS, CHO-K1-mDLL3 cells, 0.00128 nM antibody
[22] = target: human DLL3 protein expressed on CHO-K1 recombinant cells (human DLL3 extracellular segment fused to EpCAM transmembrane and intracellular regions) (human) (UniProt Q9NYJ7); assay: FACS, CHO-K1 hDLL3 cells, 20 nM antibody
[23] = target: mouse DLL3 on CHO-K1-mDLL3 cells (mouse) (UniProt O88516); assay: FACS, CHO-K1-mDLL3 cells, 0.8 nM antibody
[24] = target: monkey DLL3 on CHO-K1-cyno DLL3 cells (cynomolgus monkey); assay: FACS, CHO-K1-cyno DLL3 cells, 0.00128 nM antibody
[25] = target: human DLL3 protein expressed on CHO-K1 recombinant cells (human DLL3 extracellular segment fused to EpCAM transmembrane and intracellular regions) (human) (UniProt Q9NYJ7); assay: FACS, CHO-K1 hDLL3 cells, 100 nM antibody
[26] = target: mouse DLL3 on CHO-K1-mDLL3 cells (mouse) (UniProt O88516); assay: FACS, CHO-K1-mDLL3 cells, 0.0064 nM antibody
[27] = target: DLL3 endogenously expressed on NCI-H82 cells (UniProt Q9NYJ7); assay: FACS on NCI-H82 cells; antibody 0.16 nM
[28] = target: human DLL3 protein expressed on CHO-K1 recombinant cells (human DLL3 extracellular segment fused to EpCAM transmembrane and intracellular regions) (human) (UniProt Q9NYJ7); assay: FACS, CHO-K1 hDLL3 cells, 0.00128 nM antibody
[29] = target: human DLL3 protein expressed on CHO-K1 recombinant cells (human DLL3 extracellular segment fused to EpCAM transmembrane and intracellular regions) (human) (UniProt Q9NYJ7); assay: FACS, CHO-K1 hDLL3 cells, 0.16 nM antibody
[30] = target: human DLL3 protein expressed on CHO-K1 recombinant cells (human DLL3 extracellular segment fused to EpCAM transmembrane and intracellular regions) (human) (UniProt Q9NYJ7); assay: FACS, CHO-K1 hDLL3 cells, 0.8 nM antibody
[31] = target: DLL3 endogenously expressed on NCI-H82 cells (UniProt Q9NYJ7); assay: FACS on NCI-H82 cells; antibody 0.00128 nM
[32] = target: monkey DLL3 on CHO-K1-cyno DLL3 cells (cynomolgus monkey); assay: FACS, CHO-K1-cyno DLL3 cells, 0.032 nM antibody
[33] = target: DLL3 endogenously expressed on NCI-H82 cells (UniProt Q9NYJ7); assay: FACS on NCI-H82 cells; antibody 0.032 nM
[34] = target: monkey DLL3 on CHO-K1-cyno DLL3 cells (cynomolgus monkey); assay: FACS, CHO-K1-cyno DLL3 cells, 4 nM antibody
[35] = target: mouse DLL3 on CHO-K1-mDLL3 cells (mouse) (UniProt O88516); assay: FACS, CHO-K1-mDLL3 cells, 4 nM antibody

Sequence of DLL3 endogenously expressed on NCI-H82 cells (Q9NYJ7 27-618): as the sequence (Q9NYJ7 27-618, stated change not applied) above

MFI [1]: 848 | MFI [2]: 929 | MFI [3]: 1440 MFI | MFI [4]: 199 MFI | MFI [5]: 194 MFI | MFI [6]: 4590 MFI | Emax of OD450 nm binding value [7]: 0.64 OD450 nm | MFI [8]: 166 MFI | MFI [9]: 424 MFI | MFI [10]: 7090 MFI | MFI [11]: 339 MFI | MFI [12]: 779 | MFI [13]: 1580 MFI | MFI [14]: 10700 MFI | MFI [15]: 139 | MFI at 0.00128 nM [16]: 106 MFI | MFI at 0.0064 nM [16]: 122 MFI | MFI at 0.032 nM [16]: 189 MFI | MFI at 0.16 nM [16]: 405 MFI | MFI at 0.8 nM [16]: 666 MFI | MFI at 4 nM [16]: 785 MFI | MFI at 20 nM [16]: 876 MFI | MFI at 100 nM [16]: 1060 MFI | MFI [17]: 1110 | MFI [18]: 7380 MFI | MFI [19]: 1330 MFI | Emax of OD450 nm binding value [20]: 0.47 OD450 nm | MFI [21]: 122 MFI | MFI [22]: 12000 MFI | MFI [23]: 953 MFI | MFI [24]: 142 MFI | MFI [25]: 12000 MFI | MFI [26]: 139 MFI | MFI [27]: 473 | MFI [28]: 134 MFI | MFI [29]: 1030 MFI | MFI [30]: 4640 MFI | MFI [31]: 122 | MFI [32]: 428 MFI | MFI [33]: 230 | MFI [34]: 6610 MFI | MFI [35]: 1240 MFI
B1: Hab015VL5VH5a-hFc (scFv, part only; not given: scFv linker and human IgG1 Fc, V domains shown, not shown: another chain or arm of the molecule; a dimerising Fc or GST; small tags and cut ends)
VL: NIQMTQSPSSLSASVGDRVTITCKASENVGTYVSWYQQKPGKSPKLLIYGASNRYTGVPSRFSGSGSGTDFTLTISSLQPEDFATYYCGQFYSFPSTFGGGTKVEIK
VH: EVQLVESGGGLVKPGGSLRLSCVASGITFSNFWMNWVRQAPGKGLEWVGQIRLKSDDYATHYAESVKGRFTISREDSKNTVYLQMNSLKTEDTAVYYCTTGYYFDYWGQGTTVTVSS

MFI [1]: 745 | MFI [2]: 838 | MFI [3]: 1350 MFI | MFI [4]: 186 MFI | MFI [5]: 195 MFI | MFI [6]: 4140 MFI | Emax of OD450 nm binding value [7]: 0.67 OD450 nm | MFI [8]: 174 MFI | MFI [9]: 361 MFI | MFI [10]: 6970 MFI | MFI [11]: 341 MFI | MFI [12]: 711 | MFI [13]: 1460 MFI | MFI [14]: 10300 MFI | MFI [15]: 139 | MFI at 0.00128 nM [16]: 102 MFI | MFI at 0.0064 nM [16]: 118 MFI | MFI at 0.032 nM [16]: 178 MFI | MFI at 0.16 nM [16]: 356 MFI | MFI at 0.8 nM [16]: 632 MFI | MFI at 4 nM [16]: 714 MFI | MFI at 20 nM [16]: 844 MFI | MFI at 100 nM [16]: 1030 MFI | MFI [17]: 983 | MFI [18]: 7310 MFI | MFI [19]: 1140 MFI | Emax of OD450 nm binding value [20]: 0.43 OD450 nm | MFI [21]: 122 MFI | MFI [22]: 11500 MFI | MFI [23]: 884 MFI | MFI [24]: 140 MFI | MFI [25]: 11800 MFI | MFI [26]: 131 MFI | MFI [27]: 426 | MFI [28]: 137 MFI | MFI [29]: 980 MFI | MFI [30]: 4100 MFI | MFI [31]: 121 | MFI [32]: 410 MFI | MFI [33]: 212 | MFI [34]: 6500 MFI | MFI [35]: 1160 MFI
B2: Hab015VL5VH1b-hFc (scFv, part only; not given: VL-VH linker and human IgG1 Fc, V domains shown, not shown: another chain or arm of the molecule; a dimerising Fc or GST; small tags and cut ends)
VL: B1 VL
VH: B1 VH with V23A, D56E
